Assay in all cases: BLI
For experiment [1], the target named is T1, Germicidin synthase (Gcs), wild type (Streptomyces coelicolor, UniProt Q9K464 1-389).
T1 sequence (looked up): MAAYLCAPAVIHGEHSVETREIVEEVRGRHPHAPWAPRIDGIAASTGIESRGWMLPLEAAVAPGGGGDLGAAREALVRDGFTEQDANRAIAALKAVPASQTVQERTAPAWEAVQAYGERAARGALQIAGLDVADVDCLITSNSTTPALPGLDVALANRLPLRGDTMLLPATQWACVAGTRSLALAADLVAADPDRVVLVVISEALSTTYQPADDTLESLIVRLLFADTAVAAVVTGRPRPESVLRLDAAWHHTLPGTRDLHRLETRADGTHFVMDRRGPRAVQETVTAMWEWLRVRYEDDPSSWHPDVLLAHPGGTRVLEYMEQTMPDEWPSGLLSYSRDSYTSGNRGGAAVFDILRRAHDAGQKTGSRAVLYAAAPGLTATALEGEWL

In experiment [2] the target is T2, Germicidin synthase (Gcs) R276A (Streptomyces coelicolor, UniProt Q9K464 1-389, R276A).
T2 sequence (looked up): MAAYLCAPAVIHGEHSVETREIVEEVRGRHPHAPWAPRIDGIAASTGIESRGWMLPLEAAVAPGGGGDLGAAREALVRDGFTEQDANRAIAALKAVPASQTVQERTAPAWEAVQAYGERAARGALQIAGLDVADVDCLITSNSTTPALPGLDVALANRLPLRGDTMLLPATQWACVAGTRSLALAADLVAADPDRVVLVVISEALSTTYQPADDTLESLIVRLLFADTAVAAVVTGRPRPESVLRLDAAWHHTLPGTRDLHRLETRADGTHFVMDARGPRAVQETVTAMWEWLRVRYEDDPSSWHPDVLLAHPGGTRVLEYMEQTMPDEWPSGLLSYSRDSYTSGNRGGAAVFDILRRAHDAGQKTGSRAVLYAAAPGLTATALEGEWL

Experiment [3] has as its target T3, Germicidin synthase (Gcs) R277A (Streptomyces coelicolor, UniProt Q9K464 1-389, R277A).
T3 sequence (looked up): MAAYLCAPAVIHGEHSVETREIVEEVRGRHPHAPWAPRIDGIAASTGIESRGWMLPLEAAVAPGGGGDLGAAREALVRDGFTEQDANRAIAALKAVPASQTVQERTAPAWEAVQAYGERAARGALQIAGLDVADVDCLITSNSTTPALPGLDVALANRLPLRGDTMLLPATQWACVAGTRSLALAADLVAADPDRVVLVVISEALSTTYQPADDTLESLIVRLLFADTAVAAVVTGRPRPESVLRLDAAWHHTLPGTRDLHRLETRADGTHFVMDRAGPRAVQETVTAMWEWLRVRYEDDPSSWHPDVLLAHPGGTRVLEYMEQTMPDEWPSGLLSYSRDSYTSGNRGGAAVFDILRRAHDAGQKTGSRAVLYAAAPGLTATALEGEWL

Experiment [4] concerns the target T4, Germicidin synthase (Gcs) R280A (Streptomyces coelicolor, UniProt Q9K464 1-389, R280A).
T4 sequence (looked up): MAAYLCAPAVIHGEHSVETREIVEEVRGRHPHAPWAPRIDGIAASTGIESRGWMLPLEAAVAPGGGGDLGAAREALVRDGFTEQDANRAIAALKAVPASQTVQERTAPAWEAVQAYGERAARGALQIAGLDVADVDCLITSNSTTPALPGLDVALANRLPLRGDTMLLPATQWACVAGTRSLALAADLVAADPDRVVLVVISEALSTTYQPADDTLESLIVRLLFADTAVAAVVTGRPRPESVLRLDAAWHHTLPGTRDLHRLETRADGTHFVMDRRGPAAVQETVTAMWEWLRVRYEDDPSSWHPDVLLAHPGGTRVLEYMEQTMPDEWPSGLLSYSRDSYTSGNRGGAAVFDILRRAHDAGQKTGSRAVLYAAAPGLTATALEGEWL

Experiment [5] concerns the target T5, Germicidin synthase (Gcs) R317A (Streptomyces coelicolor, UniProt Q9K464 1-389, R317A).
T5 sequence (looked up): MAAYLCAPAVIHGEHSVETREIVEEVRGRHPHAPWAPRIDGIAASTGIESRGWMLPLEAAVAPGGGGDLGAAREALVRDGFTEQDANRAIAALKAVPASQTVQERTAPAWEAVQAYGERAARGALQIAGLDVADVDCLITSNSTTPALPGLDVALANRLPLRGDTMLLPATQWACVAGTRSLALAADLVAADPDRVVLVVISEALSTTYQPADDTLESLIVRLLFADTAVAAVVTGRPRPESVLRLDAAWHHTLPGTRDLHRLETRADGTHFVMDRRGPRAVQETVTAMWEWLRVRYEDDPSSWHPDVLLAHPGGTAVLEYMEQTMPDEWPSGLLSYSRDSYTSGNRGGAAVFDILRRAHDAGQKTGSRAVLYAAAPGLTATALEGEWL

In experiment [6] the target is T6, Germicidin synthase (Gcs) R276/317A double mutant (Streptomyces coelicolor, UniProt Q9K464 1-389, R276/317A | R276/317A).
T6 sequence (looked up): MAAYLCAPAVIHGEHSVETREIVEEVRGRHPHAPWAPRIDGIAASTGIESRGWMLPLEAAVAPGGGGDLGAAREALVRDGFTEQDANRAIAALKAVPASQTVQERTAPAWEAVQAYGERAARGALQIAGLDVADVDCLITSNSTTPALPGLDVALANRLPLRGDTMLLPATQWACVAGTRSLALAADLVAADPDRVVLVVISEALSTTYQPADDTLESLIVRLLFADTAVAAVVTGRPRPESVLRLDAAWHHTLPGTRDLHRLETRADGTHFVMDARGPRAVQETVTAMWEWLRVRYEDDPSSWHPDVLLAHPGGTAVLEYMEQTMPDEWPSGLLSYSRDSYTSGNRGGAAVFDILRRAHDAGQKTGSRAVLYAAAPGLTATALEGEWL

B1: Acyl carrier protein AcpP (Sco2389), biotinylated (natural protein, Streptomyces coelicolor, UniProt P72393 1-82, looked up)
chain: MAATQEEIVAGLAEIVNEIAGIPVEDVKLDKSFTDDLDVDSLSMVEVVVAAEERFDVKIPDDDVKNLKTVGDATKYILDHQA
modifications: biotin (EZ-Link NHS-LC-LC-biotin, 5:1 molar ratio of biotin to protein)
As for B1, the Kd was 225 nM in experiment [1]; 185 nM in experiment [2]; 403 nM in experiment [3]; 184 nM in experiment [4]; 161 nM in experiment [5]; 192 nM in experiment [6]. In addition, the koff in experiment [1] amounted to 0.00022 s⁻¹; in experiment [2] it was 0.000253 s⁻¹; in experiment [3], 0.000128 s⁻¹; in experiment [4], 0.000122 s⁻¹; in experiment [5], 0.000407 s⁻¹; in experiment [6], 0.00017 s⁻¹. Further, the kon in experiment [1] worked out at 1190 M⁻¹ s⁻¹; in experiment [2] it was 628 M⁻¹ s⁻¹; in experiment [3], 695 M⁻¹ s⁻¹; in experiment [4] it was 769 M⁻¹ s⁻¹; in experiment [5] it was 1810 M⁻¹ s⁻¹; in experiment [6], 892 M⁻¹ s⁻¹.

What is called Kd is a measure of binding affinity in units of concentration. A high value points to weaker binding. A word on the koff: it is the rate constant with which the complex falls apart. A low value points to a long-lived complex. For orientation: kon means a measure of how fast the partners come together. A lower kon goes with slower complex formation.

The record behind these values is publication PMC3342439 (Journal of the American Chemical Society, 2012).
